Experimental data as given in the supplement of paper PMC10065799, “High-throughput profiling of sequence recognition by tyrosine kinases and SH2 domains using bacterial peptide display” (eLife, 2023).

Assays:
[1] = molecular target: c-Src SH2; assay: SH2 binding enrichment of the phosphorylated peptide, bacterial display (enrichment ratio); higher = better substrate or ligand; peptides without Tyr show the background
[2] = molecular target: SHP2-C SH2; assay: as above
[3] = molecular target: Grb2 SH2 (UniProt P62993); assay: as above
[4] = molecular target: Fes (UniProt P07332); assay: phosphorylation enrichment, bacterial display (enrichment ratio); higher = better substrate or ligand; peptides without Tyr show the background
[5] = molecular target: FGFR3 (UniProt P22607); assay: as above
[6] = molecular target: MERTK (UniProt Q12866); assay: as above
[7] = molecular target: EPHB1 (UniProt P54762); assay: as above
[8] = molecular target: Hck (UniProt P08631); assay: as above
[9] = system: c-Src; assay: as above
[10] = molecular target: FGFR1 (UniProt P11362); assay: as above
[11] = system: c-Abl (mouse); assay: as above
[12] = system: AncSZ; assay: as above
[13] = system: Fer (mouse); assay: as above
[14] = molecular target: Fyn (UniProt P06241); assay: as above
[15] = molecular target: EPHB2 (UniProt P29323); assay: as above
[16] = molecular target: Jak2 (UniProt O60674); assay: as above
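Throughout, for SH2 binding enrichment of the phosphorylated peptide, bacterial display: peptide library displayed on the E. coli surface as eCPX fusions, selected cells deep-sequenced, score is each peptide's frequency after selection divided by its frequency in the input.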
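Throughout, for phosphorylation enrichment, bacterial display: 11-residue human phosphosite peptides and single-mutation variants displayed on the E. coli surface, counted by deep sequencing, each peptide's frequency after selection divided by its frequency in the unselected input library; frequency after pTyr selection over input frequency; kinase dosed for 20-30% of maximal phosphorylation in three min.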

Chain of Fes (P07332 whole entry, looked up): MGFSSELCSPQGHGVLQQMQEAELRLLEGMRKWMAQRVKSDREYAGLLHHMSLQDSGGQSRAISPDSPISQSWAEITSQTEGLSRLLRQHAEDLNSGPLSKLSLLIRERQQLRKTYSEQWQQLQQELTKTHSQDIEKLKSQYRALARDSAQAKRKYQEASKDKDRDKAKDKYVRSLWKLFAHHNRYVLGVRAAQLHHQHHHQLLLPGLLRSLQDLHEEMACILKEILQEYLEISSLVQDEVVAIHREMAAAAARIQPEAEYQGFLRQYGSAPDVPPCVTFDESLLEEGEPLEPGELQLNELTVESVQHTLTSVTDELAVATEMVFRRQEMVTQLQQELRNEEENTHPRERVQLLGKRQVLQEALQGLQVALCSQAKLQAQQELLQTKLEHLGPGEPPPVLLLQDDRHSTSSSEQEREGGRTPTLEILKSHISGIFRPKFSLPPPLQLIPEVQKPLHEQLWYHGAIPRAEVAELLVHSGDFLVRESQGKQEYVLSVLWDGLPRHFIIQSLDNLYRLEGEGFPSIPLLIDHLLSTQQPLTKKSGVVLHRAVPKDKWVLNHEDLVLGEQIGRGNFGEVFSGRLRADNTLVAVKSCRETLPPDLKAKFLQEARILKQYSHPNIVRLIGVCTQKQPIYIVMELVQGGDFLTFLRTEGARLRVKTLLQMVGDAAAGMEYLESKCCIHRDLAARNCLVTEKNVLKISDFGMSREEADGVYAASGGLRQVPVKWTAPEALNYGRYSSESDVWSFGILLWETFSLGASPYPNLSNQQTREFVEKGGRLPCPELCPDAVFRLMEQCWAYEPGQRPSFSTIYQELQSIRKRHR
Chain of FGFR1 (P11362 whole entry, looked up): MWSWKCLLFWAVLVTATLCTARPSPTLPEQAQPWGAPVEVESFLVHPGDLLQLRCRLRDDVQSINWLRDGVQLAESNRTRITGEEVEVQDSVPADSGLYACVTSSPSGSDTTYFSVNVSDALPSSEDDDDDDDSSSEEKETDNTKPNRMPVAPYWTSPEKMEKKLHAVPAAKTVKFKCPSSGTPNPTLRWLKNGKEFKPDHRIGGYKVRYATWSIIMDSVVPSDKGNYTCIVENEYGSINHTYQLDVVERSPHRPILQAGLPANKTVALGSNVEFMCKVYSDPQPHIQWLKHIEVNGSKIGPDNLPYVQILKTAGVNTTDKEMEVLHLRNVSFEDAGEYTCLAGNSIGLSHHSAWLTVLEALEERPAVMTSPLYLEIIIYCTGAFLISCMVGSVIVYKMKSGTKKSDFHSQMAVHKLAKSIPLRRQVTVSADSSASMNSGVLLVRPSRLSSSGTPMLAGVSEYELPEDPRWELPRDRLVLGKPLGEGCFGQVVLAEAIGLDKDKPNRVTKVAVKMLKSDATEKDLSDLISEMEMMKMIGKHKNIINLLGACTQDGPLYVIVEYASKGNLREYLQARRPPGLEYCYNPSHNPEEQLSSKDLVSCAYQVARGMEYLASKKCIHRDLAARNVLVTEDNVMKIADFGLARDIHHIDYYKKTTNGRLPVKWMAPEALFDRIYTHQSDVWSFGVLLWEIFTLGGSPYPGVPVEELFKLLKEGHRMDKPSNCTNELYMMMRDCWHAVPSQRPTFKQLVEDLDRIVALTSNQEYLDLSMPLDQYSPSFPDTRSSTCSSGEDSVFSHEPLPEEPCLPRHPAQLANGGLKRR
Chain of EPHB2 (P29323 whole entry, looked up): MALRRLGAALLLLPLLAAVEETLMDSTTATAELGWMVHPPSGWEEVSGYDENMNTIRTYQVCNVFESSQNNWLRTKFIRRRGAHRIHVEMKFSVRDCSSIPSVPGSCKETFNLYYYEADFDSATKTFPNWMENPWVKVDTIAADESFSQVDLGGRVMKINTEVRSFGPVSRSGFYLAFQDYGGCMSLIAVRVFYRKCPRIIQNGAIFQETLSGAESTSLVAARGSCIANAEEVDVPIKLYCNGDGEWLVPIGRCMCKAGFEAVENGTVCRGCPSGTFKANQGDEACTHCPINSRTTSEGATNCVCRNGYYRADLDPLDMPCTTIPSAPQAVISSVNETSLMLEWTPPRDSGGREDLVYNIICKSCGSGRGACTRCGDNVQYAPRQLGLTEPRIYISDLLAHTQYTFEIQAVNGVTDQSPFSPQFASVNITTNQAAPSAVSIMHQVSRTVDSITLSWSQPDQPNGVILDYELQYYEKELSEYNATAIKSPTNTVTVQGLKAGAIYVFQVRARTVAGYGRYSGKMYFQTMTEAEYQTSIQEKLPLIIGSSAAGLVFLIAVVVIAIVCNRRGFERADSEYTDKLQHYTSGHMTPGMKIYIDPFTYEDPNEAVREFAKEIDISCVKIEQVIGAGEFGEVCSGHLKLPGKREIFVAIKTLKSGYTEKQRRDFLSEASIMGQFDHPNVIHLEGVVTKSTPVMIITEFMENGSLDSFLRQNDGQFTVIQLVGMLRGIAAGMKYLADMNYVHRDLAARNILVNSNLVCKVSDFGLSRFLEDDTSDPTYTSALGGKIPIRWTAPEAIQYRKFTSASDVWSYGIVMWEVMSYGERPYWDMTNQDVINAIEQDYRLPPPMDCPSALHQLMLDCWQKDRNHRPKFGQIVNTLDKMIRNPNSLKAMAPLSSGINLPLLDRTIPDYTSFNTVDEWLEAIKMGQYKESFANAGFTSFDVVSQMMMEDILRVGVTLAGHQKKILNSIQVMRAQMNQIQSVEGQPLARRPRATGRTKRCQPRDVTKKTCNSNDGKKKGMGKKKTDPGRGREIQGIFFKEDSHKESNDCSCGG
Chain of Grb2 SH2 (P62993 whole entry, looked up): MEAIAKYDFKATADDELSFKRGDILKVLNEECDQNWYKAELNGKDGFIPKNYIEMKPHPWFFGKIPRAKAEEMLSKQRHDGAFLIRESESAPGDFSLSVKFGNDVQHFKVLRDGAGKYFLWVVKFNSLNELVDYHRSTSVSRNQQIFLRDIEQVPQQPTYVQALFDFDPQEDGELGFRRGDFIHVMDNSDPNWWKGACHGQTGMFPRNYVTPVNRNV
Chain of EPHB1 (P54762 whole entry, looked up): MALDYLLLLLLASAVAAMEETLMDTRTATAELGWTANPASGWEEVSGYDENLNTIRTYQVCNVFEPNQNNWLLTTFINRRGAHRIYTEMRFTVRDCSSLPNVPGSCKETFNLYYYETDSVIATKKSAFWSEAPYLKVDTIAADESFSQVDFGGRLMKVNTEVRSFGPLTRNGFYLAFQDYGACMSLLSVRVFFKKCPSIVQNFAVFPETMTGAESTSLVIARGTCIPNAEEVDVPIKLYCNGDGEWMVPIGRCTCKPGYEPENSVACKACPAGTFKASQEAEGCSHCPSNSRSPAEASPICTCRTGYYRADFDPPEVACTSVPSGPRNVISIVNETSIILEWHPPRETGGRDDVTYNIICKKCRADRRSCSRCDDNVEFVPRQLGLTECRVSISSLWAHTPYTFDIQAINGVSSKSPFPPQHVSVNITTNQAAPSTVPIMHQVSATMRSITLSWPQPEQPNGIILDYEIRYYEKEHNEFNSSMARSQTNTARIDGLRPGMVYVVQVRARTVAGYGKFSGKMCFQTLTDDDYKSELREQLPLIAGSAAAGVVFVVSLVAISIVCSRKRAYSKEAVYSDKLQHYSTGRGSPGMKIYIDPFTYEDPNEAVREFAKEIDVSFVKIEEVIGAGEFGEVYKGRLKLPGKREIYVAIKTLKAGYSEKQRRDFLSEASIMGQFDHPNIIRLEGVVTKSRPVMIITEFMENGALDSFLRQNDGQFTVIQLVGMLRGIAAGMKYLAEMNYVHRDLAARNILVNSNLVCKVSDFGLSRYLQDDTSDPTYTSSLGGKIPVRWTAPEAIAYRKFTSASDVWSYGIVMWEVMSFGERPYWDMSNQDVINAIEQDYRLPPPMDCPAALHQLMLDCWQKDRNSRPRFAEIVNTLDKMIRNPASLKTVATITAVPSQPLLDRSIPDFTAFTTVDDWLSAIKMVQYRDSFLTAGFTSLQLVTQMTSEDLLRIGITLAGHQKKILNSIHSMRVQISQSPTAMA
Chain of Jak2 (O60674 whole entry, looked up, the tested form may be a part): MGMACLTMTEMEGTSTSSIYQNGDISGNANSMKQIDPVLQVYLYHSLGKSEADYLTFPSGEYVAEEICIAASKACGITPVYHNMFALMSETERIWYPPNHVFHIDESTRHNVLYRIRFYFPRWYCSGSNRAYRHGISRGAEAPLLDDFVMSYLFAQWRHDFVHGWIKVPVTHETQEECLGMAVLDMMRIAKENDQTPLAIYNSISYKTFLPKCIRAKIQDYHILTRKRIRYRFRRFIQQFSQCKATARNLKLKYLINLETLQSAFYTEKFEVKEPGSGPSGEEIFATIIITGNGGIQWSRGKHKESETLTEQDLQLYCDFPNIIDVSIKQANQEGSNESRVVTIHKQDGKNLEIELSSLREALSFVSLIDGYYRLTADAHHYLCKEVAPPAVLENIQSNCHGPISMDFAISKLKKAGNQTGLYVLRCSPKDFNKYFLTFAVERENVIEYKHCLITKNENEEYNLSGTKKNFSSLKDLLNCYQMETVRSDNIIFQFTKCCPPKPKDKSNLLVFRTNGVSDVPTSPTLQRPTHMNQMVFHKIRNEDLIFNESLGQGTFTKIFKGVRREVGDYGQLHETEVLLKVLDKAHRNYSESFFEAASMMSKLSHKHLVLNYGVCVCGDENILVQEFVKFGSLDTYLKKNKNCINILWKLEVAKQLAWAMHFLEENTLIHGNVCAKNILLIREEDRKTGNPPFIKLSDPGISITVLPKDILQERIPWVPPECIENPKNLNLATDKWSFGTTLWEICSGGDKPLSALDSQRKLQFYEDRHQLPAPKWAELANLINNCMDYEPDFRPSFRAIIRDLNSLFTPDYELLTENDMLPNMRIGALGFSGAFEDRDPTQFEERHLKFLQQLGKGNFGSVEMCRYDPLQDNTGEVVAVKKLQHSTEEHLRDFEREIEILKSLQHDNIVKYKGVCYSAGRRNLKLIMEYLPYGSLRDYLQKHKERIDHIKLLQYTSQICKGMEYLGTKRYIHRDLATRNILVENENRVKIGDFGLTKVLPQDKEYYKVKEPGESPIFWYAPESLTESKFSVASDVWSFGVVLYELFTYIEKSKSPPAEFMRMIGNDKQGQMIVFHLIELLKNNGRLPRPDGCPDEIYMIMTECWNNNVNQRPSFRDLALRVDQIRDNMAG

Sequence | SH2 binding enrichment [1] | SH2 binding enrichment [2] | SH2 binding enrichment [3] | phosphorylation enrichment [4] | phosphorylation enrichment [5] | phosphorylation enrichment [6] | phosphorylation enrichment [7] | phosphorylation enrichment [8] | phosphorylation enrichment [9] | phosphorylation enrichment [10] | phosphorylation enrichment [11] | phosphorylation enrichment [12] | phosphorylation enrichment [13] | phosphorylation enrichment [14] | phosphorylation enrichment [15] | phosphorylation enrichment [16]
KQVEQYMSFHK [HCN1_Y417] | 0.524 | 0.583 | 0.782 | 0.754 | 0.54 | 0.384 | 0.528 | 3.62 | 1.45 | 0.49 | 0.691 | 0.833 | 0.413 | 1.49 | 0.555 | 0.687
ETCLAYMEKRI [TEKT1_Y118_R119M] | 0.445 | 0.775 | 0.67 | 1.13 | 0.814 | 0.406 | 0.591 | 0.56 | 0.511 | 0.48 | 0.818 | 1.2 | 0.691 | 0.517 | 0.617 | 1.17
KGNMYYENSYA [EGFR_Y113_R108K] | 4.96 | 1.05 | 10.2 | 0.77 | 0.72 | 1.17 | 0.629 | 0.561 | 0.473 | 0.878 | 0.474 | 0.667 | 1.23 | 0.515 | 0.593 | 0.481
RLDRSYSYSYS [PEAR1_Y890] | 1.41 | 1.12 | 0.782 | 0.597 | 0.42 | 0.569 | 0.443 | 0.5 | 0.42 | 0.594 | 0.359 | 0.655 | 0.467 | 0.334 | 0.434 | 0.374
GRVLGYGTFGK [FLT4_Y853_A855T] | 0.725 | 0.7 | 1.01 | 0.633 | 0.414 | 0.369 | 0.372 | 0.417 | 0.623 | 0.338 | 0.533 | 0.553 | 0.393 | 0.543 | 0.538 | 0.617
GEEIKYTLWLS [OTC_Y55_M56T] | 0.379 | 0.644 | 0.725 | 1.4 | 0.882 | 0.512 | 0.704 | 0.529 | 0.443 | 0.538 | 0.873 | 1.35 | 0.712 | 0.418 | 0.605 | 1.21
KNKNRCKNILP [PTPN11_Y279_Y279C] | 0.892 | 0.598 | 0.861 | 0.942 | 0.959 | 0.581 | 0.448 | 0.481 | 0.565 | 0.617 | 1.37 | 0.765 | 0.488 | 0.374 | 0.503 | 1.48
SSMIDYNTLEK [MYOC_Y479_P481T] | 0.607 | 0.433 | 0.643 | 0.748 | 0.568 | 0.408 | 0.428 | 0.482 | 0.401 | 0.401 | 0.486 | 0.792 | 0.453 | 0.452 | 0.506 | 0.904
SAVVPYEPPEV [TP53_Y220_V216A] | 0.643 | 0.502 | 0.806 | 1.21 | 0.761 | 0.409 | 0.643 | 0.513 | 0.484 | 0.586 | 0.649 | 1.23 | 0.479 | 0.556 | 0.608 | 0.998
GGMTEYELVVV [KRAS_Y4_K5E] | 0.525 | 0.528 | 0.792 | 1.04 | 1.62 | 0.456 | 1.39 | 0.585 | 0.651 | 2.95 | 0.589 | 1.6 | 7.66 | 0.664 | 1.15 | 1
QSHKVYVQHLL [POR_Y604] | 0.665 | 1 | 0.979 | 0.971 | 0.977 | 0.594 | 0.444 | 0.858 | 0.618 | 0.867 | 0.806 | 0.919 | 0.742 | 0.908 | 0.572 | 0.798
AGLEEYSAMRD [HRAS_Y64_Q61L] | 0.572 | 0.693 | 0.821 | 0.997 | 0.666 | 0.429 | 0.568 | 0.523 | 0.484 | 0.52 | 0.636 | 0.952 | 0.495 | 0.45 | 0.585 | 0.837
SMAKFYASGIA [ACADSB_Y373_E376G_YF] | 0.359 | 1 | 0.701 | 0.636 | 0.561 | 0.464 | 0.344 | 0.469 | 0.352 | 0.428 | 0.51 | 0.738 | 0.369 | 0.461 | 0.485 | 0.677
KNDSNYVVKGN [KIT_Y823] | 0.546 | 0.659 | 0.814 | 0.635 | 0.447 | 0.382 | 0.303 | 0.406 | 0.346 | 0.55 | 0.568 | 0.539 | 0.323 | 0.37 | 0.318 | 0.482
FQRLRYIKQLG [SAMHD1_Y146] | 0.479 | 0.679 | 0.813 | 0.898 | 0.509 | 0.472 | 0.483 | 0.454 | 0.473 | 0.42 | 0.617 | 0.8 | 0.42 | 0.399 | 0.592 | 0.652
QFLMKYVRSAS [ABCD1_Y337_W339R] | 0.369 | 0.927 | 0.517 | 1.05 | 0.873 | 0.476 | 0.673 | 0.566 | 0.799 | 0.431 | 0.82 | 0.995 | 0.559 | 0.605 | 0.666 | 1.2
TPIYPYLLPKS [PLD2_Y580_T577I] | 1.17 | 0.855 | 0.943 | 0.776 | 0.698 | 1.8 | 0.578 | 0.547 | 0.624 | 0.812 | 0.65 | 0.837 | 0.426 | 0.435 | 0.559 | 1.59

Sequence | SH2 binding enrichment [1] | SH2 binding enrichment [2] | SH2 binding enrichment [3] | phosphorylation enrichment [4] | phosphorylation enrichment [5] | phosphorylation enrichment [6] | phosphorylation enrichment [7] | phosphorylation enrichment [8] | phosphorylation enrichment [9] | phosphorylation enrichment [10] | phosphorylation enrichment [11] | phosphorylation enrichment [12] | phosphorylation enrichment [13] | phosphorylation enrichment [14] | phosphorylation enrichment [15] | phosphorylation enrichment [16]
FSKDIYKRVTG [PANK2_Y405_N404I_YF] | 0.41 | 0.598 | 0.763 | 0.58 | 0.413 | 0.334 | 0.218 | 0.423 | 0.398 | 0.431 | 0.529 | 0.516 | 0.355 | 0.444 | 0.382 | 0.407
QSSALYEDHYL [ASS1_Y83_R86H] | 0.524 | 0.54 | 0.881 | 1.18 | 0.702 | 1.33 | 5.41 | 1.58 | 1.14 | 0.477 | 0.734 | 1.24 | 18.5 | 0.904 | 2.07 | 1.18
LLLLFYVVRYC [MPZ_Y177] | 1.33 | 1.53 | 1.77 | 0.738 | 0.436 | 0.54 | 0.359 | 0.438 | 0.492 | 0.415 | 0.574 | 0.722 | 0.468 | 0.463 | 0.345 | 0.735
PELINCHQHNS [BTK_Y361_Y361C] | 0.641 | 0.919 | 1.01 | 1.04 | 0.7 | 0.712 | 0.676 | 0.544 | 0.69 | 0.682 | 0.876 | 0.938 | 0.56 | 0.297 | 0.9 | 0.971
PTDGVYVMPTV [MYO7A_Y1668_S1666G] | 0.848 | 0.943 | 0.885 | 1.21 | 2.52 | 11.7 | 2.01 | 6.35 | 7.86 | 2.95 | 4.76 | 6.14 | 0.789 | 14 | 1.48 | 1.3
SRASFYRKGGC [ALK_Y1283_Y1278S_YF] | 0.433 | 0.548 | 0.674 | 0.627 | 0.496 | 0.567 | 0.431 | 0.477 | 0.575 | 0.381 | 0.529 | 0.702 | 0.476 | 0.433 | 0.467 | 0.615
IKGIRYLHHRG [GUCY2D_Y656] | 1.01 | 0.966 | 1.39 | 0.469 | 0.363 | 0.376 | 0.423 | 0.344 | 0.439 | 0.348 | 0.497 | 0.466 | 0.432 | 0.415 | 0.358 | 0.597
QSHKVYFQHLL [POR_Y604_V605F] | 0.623 | 0.761 | 0.836 | 1.52 | 0.915 | 0.725 | 0.671 | 0.598 | 0.663 | 0.622 | 0.991 | 1.14 | 0.698 | 0.473 | 0.503 | 1.22
RTESQYQENRG [LRCH3_Y354_R350T] | 0.554 | 0.862 | 1.19 | 1 | 0.591 | 0.688 | 0.675 | 0.653 | 0.557 | 0.499 | 0.799 | 0.792 | 0.539 | 0.578 | 0.414 | 1.26
HGDSAYHSQRH [ERBB3_Y1132_R1127H] | 0.508 | 0.896 | 0.996 | 1.22 | 0.425 | 0.789 | 0.63 | 0.648 | 0.824 | 0.808 | 1.32 | 1.2 | 0.276 | 0.327 | 0.479 | 1.03
GGGGGYNRSSG [FUS_Y232] | 0.34 | 0.503 | 0.682 | 0.503 | 0.386 | 0.435 | 0.57 | 0.419 | 0.358 | 0.304 | 0.574 | 0.478 | 0.328 | 0.371 | 0.271 | 0.503
MEIHAYLKLLE [LMNA_Y376_R377L] | 0.732 | 0.714 | 0.842 | 1.8 | 0.959 | 0.48 | 0.859 | 0.574 | 0.569 | 0.517 | 1.24 | 1.33 | 0.587 | 0.521 | 0.708 | 1.62
SHSMRYFDTSV [HLA-C_Y31_A35S] | 0.367 | 0.885 | 0.932 | 0.576 | 0.463 | 0.386 | 0.482 | 0.393 | 0.432 | 0.47 | 0.455 | 0.581 | 0.37 | 0.432 | 0.448 | 0.543
TVLEPYTDPFF [ZC3H18_Y367_A368T_YF] | 1.98 | 0.649 | 0.791 | 1.09 | 0.909 | 0.519 | 0.463 | 0.501 | 0.514 | 1.29 | 0.685 | 1.25 | 0.438 | 0.535 | 0.429 | 1.09
SVVVPYETPEV [TP53_Y220_P222T] | 1.83 | 0.694 | 0.827 | 1.41 | 0.774 | 0.556 | 0.715 | 0.56 | 0.505 | 0.569 | 0.849 | 1.42 | 0.639 | 0.541 | 0.862 | 1.14
ATVLNYLPKCI [A2M_Y817] | 0.535 | 0.736 | 0.899 | 0.987 | 0.649 | 0.392 | 0.662 | 0.599 | 0.385 | 0.519 | 0.714 | 0.747 | 0.438 | 0.437 | 0.542 | 0.858
